Test results: PMC9482650, “Quantitative fragmentomics allow affinity mapping of interactomes” (Nature Communications, 2022)

T1: APBA2_1, Q99767
T1 sequence (Q99767 563-664, limits assumed, looked up): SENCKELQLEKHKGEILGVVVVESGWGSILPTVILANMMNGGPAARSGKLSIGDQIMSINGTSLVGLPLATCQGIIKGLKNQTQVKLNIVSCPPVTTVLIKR

T2: APBA3_1, O96018
T2 sequence (O96018 389-490, limits assumed, looked up): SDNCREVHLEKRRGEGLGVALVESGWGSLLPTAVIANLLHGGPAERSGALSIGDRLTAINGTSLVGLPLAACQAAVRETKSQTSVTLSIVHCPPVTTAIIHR

T3: GRIP1_7, Q9Y3R0
T3 sequence (Q9Y3R0 999-1096, limits assumed, looked up): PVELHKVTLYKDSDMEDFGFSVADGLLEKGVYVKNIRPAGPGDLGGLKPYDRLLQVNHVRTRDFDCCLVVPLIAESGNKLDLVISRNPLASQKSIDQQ

T4: HTRA4, P83105
T4 sequence (P83105 378-476, limits assumed, looked up): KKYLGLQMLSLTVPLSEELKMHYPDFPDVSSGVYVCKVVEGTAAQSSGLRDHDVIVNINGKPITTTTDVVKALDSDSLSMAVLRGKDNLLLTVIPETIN

T5: LNX2_3, Q8N448
T5 sequence (Q8N448 463-564, limits assumed, looked up): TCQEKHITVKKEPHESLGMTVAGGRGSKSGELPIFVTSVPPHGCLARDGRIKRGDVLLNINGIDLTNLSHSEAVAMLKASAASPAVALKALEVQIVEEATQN

T6: MPP6, Q9NZW5
T6 sequence (Q9NZW5 125-219, limits assumed, looked up): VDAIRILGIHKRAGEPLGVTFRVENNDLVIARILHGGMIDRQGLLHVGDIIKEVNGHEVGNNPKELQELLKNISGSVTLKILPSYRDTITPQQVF

T7: PDZD2_2, O15018
T7 sequence (O15018 329-429, limits assumed, looked up): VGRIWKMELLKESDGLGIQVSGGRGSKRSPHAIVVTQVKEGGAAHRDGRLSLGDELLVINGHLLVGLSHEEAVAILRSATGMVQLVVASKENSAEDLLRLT

T8: RADIL, Q96JH8
T8 sequence (Q96JH8 971-1071, limits assumed, looked up): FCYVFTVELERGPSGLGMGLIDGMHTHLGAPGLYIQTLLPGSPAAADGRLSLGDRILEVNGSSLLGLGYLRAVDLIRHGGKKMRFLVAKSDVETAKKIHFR

T9: RAPGEF6, Q8TEU7
T9 sequence (Q8TEU7 525-625, limits assumed, looked up): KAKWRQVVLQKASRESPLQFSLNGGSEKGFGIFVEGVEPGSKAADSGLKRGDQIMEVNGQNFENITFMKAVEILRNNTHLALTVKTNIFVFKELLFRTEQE

T10: SNTB1, Q13884
T10 sequence (Q13884 107-205, limits assumed, looked up): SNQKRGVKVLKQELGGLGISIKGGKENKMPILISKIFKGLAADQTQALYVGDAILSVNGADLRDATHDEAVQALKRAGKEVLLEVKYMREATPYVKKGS

T11: SNTG1, Q9NSN8
T11 sequence (Q9NSN8 52-150, limits assumed, looked up): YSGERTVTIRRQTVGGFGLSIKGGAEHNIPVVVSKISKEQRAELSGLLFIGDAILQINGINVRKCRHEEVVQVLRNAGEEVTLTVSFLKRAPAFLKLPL

T12: TIAM2, Q8IVF5
T12 sequence (Q8IVF5 885-986, limits assumed, looked up): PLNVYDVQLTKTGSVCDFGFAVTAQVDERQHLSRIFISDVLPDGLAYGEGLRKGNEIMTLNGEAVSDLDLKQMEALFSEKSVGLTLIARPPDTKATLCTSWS


Biological target: T1, APBA2_1, Q99767
Test: holdup assay
Parameters: key: below the threshold = too weak to quantify, mostly under pKd 3.1 to 4
Conditions: plain residues with an end cap or a label only (N-terminal biotin on a linker: ado-ado)

Binder | pKd
YLEPVLSSEL [ATP2A2, P16615;P16615-3] | below the threshold

Biological target: T2, APBA3_1, O96018
Test: holdup assay
Parameters: key: below the threshold = too weak to quantify, mostly under pKd 3.1 to 4
Conditions: plain residues with an end cap or a label only (N-terminal biotin on a linker: ado-ado)

Binder | pKd
KSGKQTMLVV [TRIM29, Q14134;Q14134-2] | below the threshold
YLEPVLSSEL [ATP2A2, P16615;P16615-3] | below the threshold

Biological target: DLG1_1, Q12959
Test: holdup assay
Parameters: key: below the threshold = too weak to quantify, mostly under pKd 3.1 to 4
Conditions: plain residues with an end cap or a label only (N-terminal biotin on a linker: ado-ado)

Binder | pKd
KSGKQTMLVV [TRIM29, Q14134;Q14134-2] | below the threshold
YLEPVLSSEL [ATP2A2, P16615;P16615-3] | below the threshold

Biological target: DLG4_1, P78352
Test: holdup assay
Parameters: key: below the threshold = too weak to quantify, mostly under pKd 3.1 to 4
Conditions: plain residues with an end cap or a label only (N-terminal biotin on a linker: ado-ado)

Sequence of DLG4_1, P78352 (P78352 62-152): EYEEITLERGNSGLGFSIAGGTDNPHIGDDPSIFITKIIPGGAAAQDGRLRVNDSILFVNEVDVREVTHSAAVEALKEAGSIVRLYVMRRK

Binder | pKd
YLEPVLSSEL [ATP2A2, P16615;P16615-3] | below the threshold

Biological target: DLG5_1, Q8TDM6
Test: holdup assay
Parameters: key: below the threshold = too weak to quantify, mostly under pKd 3.1 to 4
Conditions: plain residues with an end cap or a label only (N-terminal biotin on a linker: ado-ado)

Sequence of DLG5_1, Q8TDM6 (Q8TDM6 617-713): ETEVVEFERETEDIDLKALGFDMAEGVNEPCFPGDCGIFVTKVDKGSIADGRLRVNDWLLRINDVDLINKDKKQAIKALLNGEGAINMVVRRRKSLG

Binder | pKd
KSGKQTMLVV [TRIM29, Q14134;Q14134-2] | 3.93
YLEPVLSSEL [ATP2A2, P16615;P16615-3] | below the threshold

Biological target: FRMPD2_2, Q68DX3
Test: holdup assay
Parameters: key: below the threshold = too weak to quantify, mostly under pKd 3.1 to 4
Conditions: plain residues with an end cap or a label only (N-terminal biotin on a linker: ado-ado)

Sequence of FRMPD2_2, Q68DX3 (Q68DX3 944-1038): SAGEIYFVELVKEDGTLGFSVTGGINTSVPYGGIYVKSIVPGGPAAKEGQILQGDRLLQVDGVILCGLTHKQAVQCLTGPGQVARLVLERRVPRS

Binder | pKd
KSGKQTMLVV [TRIM29, Q14134;Q14134-2] | below the threshold
YLEPVLSSEL [ATP2A2, P16615;P16615-3] | below the threshold

Biological target: T3, GRIP1_7, Q9Y3R0
Test: holdup assay
Parameters: key: below the threshold = too weak to quantify, mostly under pKd 3.1 to 4
Conditions: plain residues with an end cap or a label only (N-terminal biotin on a linker: ado-ado)

Binder | pKd
KSGKQTMLVV [TRIM29, Q14134;Q14134-2] | below the threshold
YLEPVLSSEL [ATP2A2, P16615;P16615-3] | below the threshold

Biological target: GRIP2_4, Q9C0E4
Test: holdup assay
Parameters: key: below the threshold = too weak to quantify, mostly under pKd 3.1 to 4
Conditions: plain residues with an end cap or a label only (N-terminal biotin on a linker: ado-ado)

Sequence of GRIP2_4, Q9C0E4 (Q9C0E4 446-548): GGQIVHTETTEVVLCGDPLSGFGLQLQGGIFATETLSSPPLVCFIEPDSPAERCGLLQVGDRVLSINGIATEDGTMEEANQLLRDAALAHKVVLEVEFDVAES

Binder | pKd
KSGKQTMLVV [TRIM29, Q14134;Q14134-2] | below the threshold
YLEPVLSSEL [ATP2A2, P16615;P16615-3] | below the threshold

Biological target: GRIP2_5, Q9C0E4
Test: holdup assay
Parameters: key: below the threshold = too weak to quantify, mostly under pKd 3.1 to 4
Conditions: plain residues with an end cap or a label only (N-terminal biotin on a linker: ado-ado)

Sequence of GRIP2_5, Q9C0E4 (Q9C0E4 544-642): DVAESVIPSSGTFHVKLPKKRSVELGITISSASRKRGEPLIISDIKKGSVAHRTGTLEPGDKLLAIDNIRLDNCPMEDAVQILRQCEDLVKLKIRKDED

Binder | pKd
YLEPVLSSEL [ATP2A2, P16615;P16615-3] | below the threshold

Biological target: GRIP2_6, Q9C0E4
Test: holdup assay
Parameters: key: below the threshold = too weak to quantify, mostly under pKd 3.1 to 4
Conditions: plain residues with an end cap or a label only (N-terminal biotin on a linker: ado-ado)

Sequence of GRIP2_6, Q9C0E4 (Q9C0E4 648-740): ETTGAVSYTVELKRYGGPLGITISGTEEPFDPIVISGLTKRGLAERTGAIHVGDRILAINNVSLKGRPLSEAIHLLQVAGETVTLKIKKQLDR

Binder | pKd
YLEPVLSSEL [ATP2A2, P16615;P16615-3] | below the threshold

Biological target: T4, HTRA4, P83105
Test: holdup assay
Parameters: key: below the threshold = too weak to quantify, mostly under pKd 3.1 to 4
Conditions: plain residues with an end cap or a label only (N-terminal biotin on a linker: ado-ado)

Binder | pKd
KSGKQTMLVV [TRIM29, Q14134;Q14134-2] | 4.14
YLEPVLSSEL [ATP2A2, P16615;P16615-3] | below the threshold

Biological target: Inadl_2, Q8NI35
Test: holdup assay
Parameters: key: below the threshold = too weak to quantify, mostly under pKd 3.1 to 4
Conditions: plain residues with an end cap or a label only (N-terminal biotin on a linker: ado-ado)

Sequence of Inadl_2, Q8NI35 (Q8NI35 238-335): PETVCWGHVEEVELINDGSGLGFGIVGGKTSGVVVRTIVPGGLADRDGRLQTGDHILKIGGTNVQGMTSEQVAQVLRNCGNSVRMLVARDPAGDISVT

Binder | pKd
KSGKQTMLVV [TRIM29, Q14134;Q14134-2] | below the threshold
YLEPVLSSEL [ATP2A2, P16615;P16615-3] | below the threshold

Biological target: Inadl_3, Q8NI35
Test: holdup assay
Parameters: key: below the threshold = too weak to quantify, mostly under pKd 3.1 to 4
Conditions: plain residues with an end cap or a label only (N-terminal biotin on a linker: ado-ado)

Sequence of Inadl_3, Q8NI35 (Q8NI35 359-469): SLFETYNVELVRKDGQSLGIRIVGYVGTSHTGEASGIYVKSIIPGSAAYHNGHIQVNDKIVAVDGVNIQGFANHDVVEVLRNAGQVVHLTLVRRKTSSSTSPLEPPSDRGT

Binder | pKd
KSGKQTMLVV [TRIM29, Q14134;Q14134-2] | below the threshold
YLEPVLSSEL [ATP2A2, P16615;P16615-3] | below the threshold

Biological target: Inadl_5, Q8NI35
Test: holdup assay
Parameters: key: below the threshold = too weak to quantify, mostly under pKd 3.1 to 4
Conditions: plain residues with an end cap or a label only (N-terminal biotin on a linker: ado-ado)

Sequence of Inadl_5, Q8NI35 (Q8NI35 673-780): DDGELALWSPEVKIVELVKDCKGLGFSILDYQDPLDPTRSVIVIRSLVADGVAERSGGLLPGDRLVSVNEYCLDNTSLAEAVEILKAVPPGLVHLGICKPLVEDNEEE

Binder | pKd
KSGKQTMLVV [TRIM29, Q14134;Q14134-2] | below the threshold
YLEPVLSSEL [ATP2A2, P16615;P16615-3] | below the threshold

Biological target: LIMK2, P53671
Test: holdup assay
Parameters: key: below the threshold = too weak to quantify, mostly under pKd 3.1 to 4
Conditions: plain residues with an end cap or a label only (N-terminal biotin on a linker: ado-ado)

Sequence of LIMK2, P53671 (P53671 143-248): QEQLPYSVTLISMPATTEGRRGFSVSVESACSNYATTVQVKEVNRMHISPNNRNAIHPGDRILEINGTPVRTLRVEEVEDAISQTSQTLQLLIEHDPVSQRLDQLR

Binder | pKd
KSGKQTMLVV [TRIM29, Q14134;Q14134-2] | below the threshold
YLEPVLSSEL [ATP2A2, P16615;P16615-3] | below the threshold

Biological target: T5, LNX2_3, Q8N448
Test: holdup assay
Parameters: key: below the threshold = too weak to quantify, mostly under pKd 3.1 to 4
Conditions: plain residues with an end cap or a label only (N-terminal biotin on a linker: ado-ado)

Binder | pKd
KSGKQTMLVV [TRIM29, Q14134;Q14134-2] | below the threshold
YLEPVLSSEL [ATP2A2, P16615;P16615-3] | below the threshold

Biological target: T6, MPP6, Q9NZW5
Test: holdup assay
Parameters: key: below the threshold = too weak to quantify, mostly under pKd 3.1 to 4
Conditions: plain residues with an end cap or a label only (N-terminal biotin on a linker: ado-ado)

Binder | pKd
KSGKQTMLVV [TRIM29, Q14134;Q14134-2] | below the threshold
YLEPVLSSEL [ATP2A2, P16615;P16615-3] | below the threshold

Biological target: PDLIM1, O00151
Test: holdup assay
Parameters: key: below the threshold = too weak to quantify, mostly under pKd 3.1 to 4
Conditions: plain residues with an end cap or a label only (N-terminal biotin on a linker: ado-ado)

Sequence of PDLIM1, O00151 (O00151 1-87): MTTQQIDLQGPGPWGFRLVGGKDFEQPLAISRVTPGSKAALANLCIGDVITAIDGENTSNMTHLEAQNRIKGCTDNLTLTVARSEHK

Binder | pKd
KSGKQTMLVV [TRIM29, Q14134;Q14134-2] | below the threshold

Biological target: T7, PDZD2_2, O15018
Test: holdup assay
Parameters: key: below the threshold = too weak to quantify, mostly under pKd 3.1 to 4
Conditions: plain residues with an end cap or a label only (N-terminal biotin on a linker: ado-ado)

Binder | pKd
KSGKQTMLVV [TRIM29, Q14134;Q14134-2] | below the threshold
YLEPVLSSEL [ATP2A2, P16615;P16615-3] | 4.41

Biological target: T8, RADIL, Q96JH8
Test: holdup assay
Parameters: key: below the threshold = too weak to quantify, mostly under pKd 3.1 to 4
Conditions: plain residues with an end cap or a label only (N-terminal biotin on a linker: ado-ado)

Binder | pKd
KSGKQTMLVV [TRIM29, Q14134;Q14134-2] | 4.46
YLEPVLSSEL [ATP2A2, P16615;P16615-3] | below the threshold

Biological target: T9, RAPGEF6, Q8TEU7
Test: holdup assay
Parameters: key: below the threshold = too weak to quantify, mostly under pKd 3.1 to 4
Conditions: plain residues with an end cap or a label only (N-terminal biotin on a linker: ado-ado)

Binder | pKd
KSGKQTMLVV [TRIM29, Q14134;Q14134-2] | below the threshold
YLEPVLSSEL [ATP2A2, P16615;P16615-3] | below the threshold

Biological target: T10, SNTB1, Q13884
Test: holdup assay
Parameters: key: below the threshold = too weak to quantify, mostly under pKd 3.1 to 4
Conditions: plain residues with an end cap or a label only (N-terminal biotin on a linker: ado-ado)

Binder | pKd
KSGKQTMLVV [TRIM29, Q14134;Q14134-2] | below the threshold
YLEPVLSSEL [ATP2A2, P16615;P16615-3] | below the threshold

Biological target: T11, SNTG1, Q9NSN8
Test: holdup assay
Parameters: key: below the threshold = too weak to quantify, mostly under pKd 3.1 to 4
Conditions: plain residues with an end cap or a label only (N-terminal biotin on a linker: ado-ado)

Binder | pKd
YLEPVLSSEL [ATP2A2, P16615;P16615-3] | below the threshold

Biological target: T12, TIAM2, Q8IVF5
Test: holdup assay
Parameters: key: below the threshold = too weak to quantify, mostly under pKd 3.1 to 4
Conditions: plain residues with an end cap or a label only (N-terminal biotin on a linker: ado-ado)

Binder | pKd
YLEPVLSSEL [ATP2A2, P16615;P16615-3] | 3.98

Biological target: TJP1_3, Q07157
Test: holdup assay
Parameters: key: below the threshold = too weak to quantify, mostly under pKd 3.1 to 4
Conditions: plain residues with an end cap or a label only (N-terminal biotin on a linker: ado-ado)

Sequence of TJP1_3, Q07157 (Q07157 416-512): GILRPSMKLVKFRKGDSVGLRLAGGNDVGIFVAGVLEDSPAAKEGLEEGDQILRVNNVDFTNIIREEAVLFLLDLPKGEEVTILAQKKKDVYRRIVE

Binder | pKd
YLEPVLSSEL [ATP2A2, P16615;P16615-3] | below the threshold
